Source: article PMC8833184

How the values were obtained:
SF3A1-UBL K717A = molecular target: T1, SF3A1-UBL K717A (human, UniProt Q15459 704-793, K717A); assay: SPR
T1 sequence: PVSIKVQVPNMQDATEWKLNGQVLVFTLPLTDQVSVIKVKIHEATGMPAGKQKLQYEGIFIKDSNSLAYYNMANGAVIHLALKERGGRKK

SF3A1-UBL K765A = molecular target: T2, SF3A1-UBL K765A (human, UniProt Q15459 704-793, K765A); assay: SPR
T2 sequence: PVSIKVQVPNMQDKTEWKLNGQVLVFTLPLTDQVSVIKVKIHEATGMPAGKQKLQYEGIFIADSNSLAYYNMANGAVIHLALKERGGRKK

SF3A1-UBL K754A = molecular target: T3, SF3A1-UBL K754A (human, UniProt Q15459 704-793, K754A); assay: SPR
T3 sequence: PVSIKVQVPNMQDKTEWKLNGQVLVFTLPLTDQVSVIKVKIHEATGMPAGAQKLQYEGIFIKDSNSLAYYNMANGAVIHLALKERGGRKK

SF3A1-UBL WT [1] = molecular target: T4, SF3A1-UBL WT (human, UniProt Q15459 704-793); assay: SPR
T4 sequence: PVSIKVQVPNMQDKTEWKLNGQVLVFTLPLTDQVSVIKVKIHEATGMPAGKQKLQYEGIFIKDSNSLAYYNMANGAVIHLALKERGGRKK

SF3A1-UBL R791A = molecular target: T5, SF3A1-UBL R791A (human, UniProt Q15459 704-793, R791A); assay: SPR
T5 sequence: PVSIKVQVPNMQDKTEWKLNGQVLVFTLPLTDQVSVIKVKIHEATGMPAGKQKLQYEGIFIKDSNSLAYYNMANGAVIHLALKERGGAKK

SF3A1-UBL G790I = molecular target: T6, SF3A1-UBL G790I (human, UniProt Q15459 704-793, G790I); assay: SPR
T6 sequence: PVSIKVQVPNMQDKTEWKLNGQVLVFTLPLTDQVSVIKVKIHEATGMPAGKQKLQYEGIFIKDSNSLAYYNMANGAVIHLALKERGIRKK

SF3A1-UBL F763A = molecular target: T7, SF3A1-UBL F763A (human, UniProt Q15459 704-793, F763A); assay: SPR
T7 sequence: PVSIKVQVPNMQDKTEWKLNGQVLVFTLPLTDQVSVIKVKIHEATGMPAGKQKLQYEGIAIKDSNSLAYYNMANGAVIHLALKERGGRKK

SF3A1-UBL G789I = molecular target: T8, SF3A1-UBL G789I (human, UniProt Q15459 704-793, G789I); assay: SPR
T8 sequence: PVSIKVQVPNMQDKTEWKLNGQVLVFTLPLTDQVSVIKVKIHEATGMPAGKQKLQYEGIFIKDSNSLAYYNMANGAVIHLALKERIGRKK

SF3A1-UBL WT [2] = molecular target: T4, SF3A1-UBL WT; assay: NMR

Binder	Kd (SF3A1-UBL K717A)	Kd (SF3A1-UBL K765A)	Kd (SF3A1-UBL K754A)	Kd (SF3A1-UBL WT [1])	Kd (SF3A1-UBL R791A)	Kd (SF3A1-UBL G790I)	Kd (SF3A1-UBL F763A)	Kd (SF3A1-UBL G789I)	binding result (SF3A1-UBL WT [2])
GGGGACUGCGUUCGCGCUUUCCCC (structured_RNA) [Biotin-U1-SL4-WT]	1.59 ± 0.27 µM	7.89 ± 0.71 µM	16.7 ± 4.38 µM	0.332 ± 0.03 µM	5.97 ± 0.5 µM	14.1 ± 3.12 µM	2.76 ± 0.3 µM	41.9 ± 5.7 µM	
GGGACUGCGUUCGCGCUUUCCC (structured_RNA) [22 nt U1-SL4]									binds
